Assay results taken from patent US20110166062A1 (INDIANA UNIVERSITY RESEARCH AND TECHNOLOGY, published 2011).
Read-outs that look alike come from different tables or passages of the source. Where no end group is shown, it is not given here. [ ]: non-standard residue; d: D form. The star is where a group is joined. PEG 40 kDa = PEG (40 kDa) covalently attached to Cys; Met(O) = CS(=O)CC[C@H](N)C(=O)O; Myristoyl = CCCCCCCCCCCCCC(=O)*; Nle = CCCC[C@H](N)C(=O)O; Orn = NCCC[C@H](N)C(=O)O; Dab = NCC[C@H](N)C(=O)O; Dap = NC[C@H](N)C(=O)O; Aib = CC(C)(N)C(=O)O; Carbamoyl = NC(=O)*

What was measured:
Experiment in all cases: cell-based or functional assay
[1] = molecular target: T1, glucagon receptor (UniProt P47871 26-477, limits assumed)
T1 sequence (P47871 26-477 limits assumed): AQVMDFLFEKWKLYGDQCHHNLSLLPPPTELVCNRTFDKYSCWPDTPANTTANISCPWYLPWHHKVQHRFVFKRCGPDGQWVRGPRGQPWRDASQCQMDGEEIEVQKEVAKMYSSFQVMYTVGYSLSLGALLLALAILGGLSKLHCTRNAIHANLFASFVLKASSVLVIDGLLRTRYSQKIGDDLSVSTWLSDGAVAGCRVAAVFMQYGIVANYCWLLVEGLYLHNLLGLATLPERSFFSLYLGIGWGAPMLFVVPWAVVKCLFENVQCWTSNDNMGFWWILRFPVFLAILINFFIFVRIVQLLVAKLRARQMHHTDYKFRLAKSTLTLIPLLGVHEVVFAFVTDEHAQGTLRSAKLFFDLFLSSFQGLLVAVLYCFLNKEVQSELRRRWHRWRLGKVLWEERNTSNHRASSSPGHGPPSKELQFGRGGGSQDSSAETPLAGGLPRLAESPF

[2] = molecular target: GLP-1 receptor (UniProt P43220 24-463, limits assumed)
[3] = molecular target: T2, GIP receptor (UniProt P48546 22-466)
T2 sequence (looked up): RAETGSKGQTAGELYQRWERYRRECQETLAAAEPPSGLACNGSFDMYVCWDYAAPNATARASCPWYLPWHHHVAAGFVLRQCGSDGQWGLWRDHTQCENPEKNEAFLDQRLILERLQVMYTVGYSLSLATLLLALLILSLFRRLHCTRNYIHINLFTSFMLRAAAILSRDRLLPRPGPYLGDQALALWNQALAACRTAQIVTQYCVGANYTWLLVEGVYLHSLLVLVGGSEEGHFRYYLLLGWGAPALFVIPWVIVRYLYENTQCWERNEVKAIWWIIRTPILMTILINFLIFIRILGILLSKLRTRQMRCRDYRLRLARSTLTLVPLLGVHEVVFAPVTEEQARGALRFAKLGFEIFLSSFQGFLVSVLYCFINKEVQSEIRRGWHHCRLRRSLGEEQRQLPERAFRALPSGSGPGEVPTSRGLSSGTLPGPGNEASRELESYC

[4] = molecular target: T1, glucagon receptor; remark: listed apart in the source
[5] = molecular target: T1, glucagon receptor; remark: listed apart in the source
[6] = molecular target: glucagon receptor (UniProt P47871 26-477, limits assumed); remark: listed apart in the source
Target sequence in this assay (P47871 26-477 limits assumed): as the sequence (P47871 26-477 limits assumed) above

[7] = molecular target: GLP-1 receptor (UniProt P43220 24-463, limits assumed); remark: listed apart in the source
[8] = molecular target: T3, GIP receptor (UniProt P48546 22-466); remark: listed apart in the source
T3 sequence (looked up): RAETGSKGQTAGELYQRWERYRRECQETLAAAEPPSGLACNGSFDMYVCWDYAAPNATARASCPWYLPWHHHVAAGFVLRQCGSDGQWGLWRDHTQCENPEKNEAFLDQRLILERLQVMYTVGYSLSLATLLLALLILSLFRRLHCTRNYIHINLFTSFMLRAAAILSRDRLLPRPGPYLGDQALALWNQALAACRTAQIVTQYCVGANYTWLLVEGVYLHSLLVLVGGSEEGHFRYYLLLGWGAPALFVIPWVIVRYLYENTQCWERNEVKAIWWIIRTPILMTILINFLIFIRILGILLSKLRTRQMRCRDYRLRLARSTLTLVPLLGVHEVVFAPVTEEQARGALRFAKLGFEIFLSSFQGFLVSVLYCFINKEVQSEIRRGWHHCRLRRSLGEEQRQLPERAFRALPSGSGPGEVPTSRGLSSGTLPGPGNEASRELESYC

Binder	EC50, nM; Glucagon Receptor [1] [nM]	relative activity; Glucagon Receptor [1] [%]	EC50, nM; GLP-1 Receptor [2] [nM]	relative activity; GLP-1 Receptor [2] [%]	EC50, nM; GIP Receptor [3] [nM]	relative activity; GIP Receptor [3] [%]	% activity* [5] [%]	EC50 at Glucagon Receptor [5] [nM]	also measured
Y[Aib]EGTFTSDYSIYLDKQAA[Aib]EFVC(PEG 40 kDa)WLLAGGPSSGAPPPSK(Myristoyl)-NH2 [mt-353]	12.5	0.17	0.0049	129	0.0035	103	–	–	–
HS[Dab](Ac)GTFTSDYSKYLD[Aib]RRAADFVAWLLDTGPSSGAPPPS-NH2 (N-terminus assumed; SMILES CC(=O)NCC[C@H](NC(=O)[C@H](CO)NC(=O)[C@@H](N)Cc1c[nH]cn1)C(=O)NCC(=O)N[C@H](C(=O)N[C@@H](Cc1ccccc1)C(=O)N[C@H](C(=O)N[C@@H](CO)C(=O)N[C@@H](CC(=O)O)C(=O)N[C@@H](Cc1ccc(O)cc1)C(=O)N[C@@H](CO)C(=O)N[C@@H](CCCCN)C(=O)N[C@@H](Cc1ccc(O)cc1)C(=O)N[C@@H](CC(C)C)C(=O)N[C@@H](CC(=O)O)C(=O)NC(C)(C)C(=O)N[C@@H](CCCNC(=N)N)C(=O)N[C@@H](CCCNC(=N)N)C(=O)N[C@@H](C)C(=O)N[C@@H](C)C(=O)N[C@@H](CC(=O)O)C(=O)N[C@@H](Cc1ccccc1)C(=O)N[C@H](C(=O)N[C@@H](C)C(=O)N[C@@H](Cc1c[nH]c2ccccc12)C(=O)N[C@@H](CC(C)C)C(=O)N[C@@H](CC(C)C)C(=O)N[C@@H](CC(=O)O)C(=O)N[C@H](C(=O)NCC(=O)N1CCC[C@H]1C(=O)N[C@@H](CO)C(=O)N[C@@H](CO)C(=O)NCC(=O)N[C@@H](C)C(=O)N1CCC[C@H]1C(=O)N1CCC[C@H]1C(=O)N1CCC[C@H]1C(=O)N[C@@H](CO)C(N)=O)[C@@H](C)O)C(C)C)[C@@H](C)O)[C@@H](C)O) [HSDab(Ac)…ibRRAADFVAWLLDTGPSSGAPPPS amide]	–	–	–	–	–	–	–	–	% activity* [4]: 113%; EC50 (nM) at Glucagon Receptor [4]: 0.023 nM
HS[Dap](Carbamoyl)GTFTSDYSKYLDTRRAAEFVAWL[Nle]DE [Peptide J backbone with Dap(urea) at position 3]	–	–	–	–	–	–	13	0.48	–
HSQGTFTSDYSKYLD[Aib]RRAADFVAWLMDE [Peptide K backbone with Q at position 3]	–	–	–	–	–	–	15	–	–
HS[Met(O)]GTFTSDYSKYLDTRRAAEFVAWL[Nle]DE [Peptide J backbone with M(O) at position 3]	–	–	–	–	–	–	7	0.91	–
HS[Orn](Ac)GTFTSDYSKYLDTRRAAEFVAWL[Nle]DE [Peptide J backbone with Orn(Ac) at position 3]	–	–	–	–	–	–	7	0.92	–
Y[Aib]QGTFTSDYSIYLDSQAA[Aib]EFVCWLLAG-NH2 (N-terminus assumed; SMILES CC[C@H](C)[C@H](NC(=O)[C@H](CO)NC(=O)[C@H](Cc1ccc(O)cc1)NC(=O)[C@H](CC(=O)O)NC(=O)[C@H](CO)NC(=O)[C@@H](NC(=O)[C@H](Cc1ccccc1)NC(=O)[C@@H](NC(=O)CNC(=O)[C@H](CCC(N)=O)NC(=O)C(C)(C)NC(=O)[C@@H](N)Cc1ccc(O)cc1)[C@@H](C)O)[C@@H](C)O)C(=O)N[C@@H](Cc1ccc(O)cc1)C(=O)N[C@@H](CC(C)C)C(=O)N[C@@H](CC(=O)O)C(=O)N[C@@H](CO)C(=O)N[C@@H](CCC(N)=O)C(=O)N[C@@H](C)C(=O)N[C@@H](C)C(=O)NC(C)(C)C(=O)N[C@@H](CCC(=O)O)C(=O)N[C@@H](Cc1ccccc1)C(=O)N[C@H](C(=O)N[C@@H](CS)C(=O)N[C@@H](Cc1c[nH]c2ccccc12)C(=O)N[C@@H](CC(C)C)C(=O)N[C@@H](CC(C)C)C(=O)N[C@@H](C)C(=O)NCC(N)=O)C(C)C) [mt-259]	–	–	–	–	–	–	–	–	EC50 [6]: 0.297 nM; relative activity [6]: 23.1%; EC50 [7]: 0.0189 nM; relative activity [7]: 63%; EC50 [8]: 0.0799 nM; relative activity [8]: 12%
YXEGTFTSDYSIYLDKQAAXEFVNWLLAGGPSSGAPPPSKC (AIB at position 20 (Example 25); listed among the acylated glucagon peptides in paragraph 284; other non-standard residues as in the sequence listing) [mt-343]	41.1	0.07	0.0224	41.5	0.0243	63.8	–	–	–
YXEGTFTSDYSIYLDKQAAXEFVNWLLAGGPSSGAPPPSKC (AIB at position 20 (Example 25); other non-standard residues as in the sequence listing) [mt-344]	159	0.02	0.089	10.4	0.0319	48.6	–	–	–
